Data reported in patent US20240043504A1.

How the values were obtained:
[1] = target: human FcγR3a 176Val allotype receptor (human) (UniProt P08637); assay: cell-based or functional assay
[2] = target: MOD1-SARS-CoV-2 Spike Protein (RBD)(R319-F541).mmH (SARS-CoV-2); assay: Luminex beads, supernatant
[3] = target: MOD10-SARS-CoV-2 Spike Protein (RBD)(R319-F541).mmH (SARS-CoV-2); assay: Luminex beads, supernatant
[4] = target: MOD11-SARS-CoV-2 Spike Protein (RBD)(R319-F541).mmH (SARS-CoV-2); assay: Luminex beads, supernatant
[5] = target: MOD12-SARS-CoV-2 Spike Protein (RBD)(R319-F541).mmH (SARS-CoV-2); assay: Luminex beads, supernatant
[6] = target: MOD13-SARS-CoV-2 Spike Protein (RBD)(R319-F541).mmH (SARS-CoV-2); assay: Luminex beads, supernatant
[7] = target: MOD14-SARS-CoV-2 Spike Protein (RBD)(R319-F541).mmH (SARS-CoV-2); assay: Luminex beads, supernatant
[8] = target: MOD15-SARS-CoV-2 Spike Protein (RBD)(R319-F541).mmH (SARS-CoV-2); assay: Luminex beads, supernatant
[9] = target: MOD2-SARS-CoV-2 Spike Protein (RBD)(R319-F541).mmH (SARS-CoV-2); assay: Luminex beads, supernatant
[10] = target: MOD3-SARS-CoV-2 Spike Protein (RBD)(R319-F541).mmH (SARS-CoV-2); assay: Luminex beads, supernatant
[11] = target: MOD4-SARS-CoV-2 Spike Protein (RBD)(R319-F541).mmH (SARS-CoV-2); assay: Luminex beads, supernatant
[12] = target: MOD5-SARS-CoV-2 Spike Protein (RBD)(R319-F541).mmH (SARS-CoV-2); assay: Luminex beads, supernatant
[13] = target: MOD6-SARS-CoV-2 Spike Protein (RBD)(R319-F541).mmH (SARS-CoV-2); assay: Luminex beads, supernatant
[14] = target: MOD7-SARS-CoV-2 Spike Protein (RBD)(R319-F541).mmH (SARS-CoV-2); assay: Luminex beads, supernatant
[15] = target: MOD8-SARS-CoV-2 Spike Protein (RBD)(R319-F541).mmH (SARS-CoV-2); assay: Luminex beads, supernatant
[16] = target: MOD9-SARS-CoV-2 Spike Protein (RBD)(R319-F541).mmH (SARS-CoV-2); assay: Luminex beads, supernatant
[17] = target: full-length SARS-CoV-2 spike protein (amino acids M1-T1273 of accession number YP_009724390.1) on Ju (SARS-CoV-2) (UniProt P0DTC2); assay: cell-based or functional assay
[18] = target: SARS-CoV-2 spike protein (S-wt, Wuhan-Hu-1, NCBI Accession Number MN908947.3) on VSV pseudoparticles (SARS-CoV-2) (UniProt P0DTC2); assay: cell-based or functional assay
[19] = target: SARS-CoV-2 spike protein on VSV-SARS-CoV-2-S pseudovirus (SARS-CoV-2) (UniProt P0DTC2); assay: cell-based or functional assay
[20] = target: SARS-CoV-2 spike protein, Wuhan-Hu-1 sequence (S-wt), on VSV pseudoparticles (SARS-CoV-2) (UniProt P0DTC2); assay: cell-based or functional assay
[21] = target: Bt-MERS.hFc (mAb2664-L2) (MERS-CoV) (UniProt K9N5Q8); assay: Luminex bead binding, supernatant
[22] = target: MERS.hFc (mAb2664-L1) (MERS-CoV) (UniProt K9N5Q8); assay: Luminex bead binding, supernatant
[23] = target: MERS.mFc (mAb2663-L1) (MERS-CoV) (UniProt K9N5Q8); assay: Luminex bead binding, supernatant

Chain of human FcγR3a 176Val allotype receptor (human) (P08637 17-254 F176V): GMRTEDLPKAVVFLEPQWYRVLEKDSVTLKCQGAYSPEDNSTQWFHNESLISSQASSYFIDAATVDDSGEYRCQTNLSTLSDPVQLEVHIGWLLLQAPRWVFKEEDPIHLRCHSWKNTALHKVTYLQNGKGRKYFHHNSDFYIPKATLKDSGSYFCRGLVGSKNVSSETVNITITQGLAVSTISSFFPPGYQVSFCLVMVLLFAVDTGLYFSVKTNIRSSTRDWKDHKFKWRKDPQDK

mAb10934 (antibody)
ADCC Mean RLU (surrogate reporter assay, spike-expressing target cells) [1]: 11700 RLU | Binding signal (MFI) [2]: 81 MFI | Binding signal (MFI) [3]: 30400 MFI | Binding signal (MFI) [4]: 30700 MFI | Binding signal (MFI) [5]: 32900 MFI | Binding signal (MFI) [6]: 30500 MFI | Binding signal (MFI) [7]: 28600 MFI | Binding signal (MFI) [8]: 27800 MFI | Binding signal (MFI) [9]: 27700 MFI | Binding signal (MFI) [10]: 25100 MFI | Binding signal (MFI) [11]: 31700 MFI | Binding signal (MFI) [12]: 6650 MFI | Binding signal (MFI) [13]: 30800 MFI | Binding signal (MFI) [14]: 29900 MFI | Binding signal (MFI) [15]: 6410 MFI | Binding signal (MFI) [16]: 31300 MFI

IgG1 Isotype Control (antibody)
ADCP Max (% ADCP), Jurkat/hCD20/SARS-CoV-2 Spike cells [17]: 10.4%

mAb10987 (antibody)
IC50 (M), neutralization [18]: 4.06e-11 M | Neutralization (1:4 dilution) [19]: 99.3% | Neutralization (1:20 dilution) [19]: 97.7% | Neutralization (1:100 dilution) [19]: 94.6% | Relative neutralization (5 µg/ml, Vero cells) [20]: 100% | ADCC (Activity (%) (of positive control)) [1]: 29.4% | ADCC Mean RLU (surrogate reporter assay, spike-expressing target cells) [1]: 12000 RLU | Binding signal (MFI) [21]: 172 MFI | Binding signal (MFI) [22]: 235 MFI | Binding signal (MFI) [23]: 196 MFI

mAb10989 (antibody)
IC50 (M), neutralization [18]: 7.23e-12 M | Neutralization (1:4 dilution) [19]: 100% | Neutralization (1:20 dilution) [19]: 99.8% | Neutralization (1:100 dilution) [19]: 98.2% | ADCC (Activity (%) (of positive control)) [1]: 21.5% | ADCC Mean RLU (surrogate reporter assay, spike-expressing target cells) [1]: 10200 RLU | Binding signal (MFI) [3]: 15500 MFI | Binding signal (MFI) [4]: 16800 MFI | Binding signal (MFI) [5]: 15100 MFI | Binding signal (MFI) [7]: 18100 MFI | Binding signal (MFI) [8]: 15900 MFI | Binding signal (MFI) [9]: 16700 MFI | Binding signal (MFI) [10]: 18300 MFI | Binding signal (MFI) [11]: 15800 MFI | Binding signal (MFI) [12]: 3370 MFI | Binding signal (MFI) [13]: 19600 MFI | Binding signal (MFI) [14]: 15200 MFI | Binding signal (MFI) [15]: 6140 MFI | Binding signal (MFI) [16]: 17800 MFI | Binding signal (MFI) [21]: 186 MFI | Binding signal (MFI) [22]: 206 MFI | Binding signal (MFI) [23]: 161 MFI

mAb10933 (antibody)
Neutralization (1:100 dilution) [19]: 88.4% | ADCC (Activity (%) (of positive control)) [1]: 68.5% | ADCC Mean RLU (surrogate reporter assay, spike-expressing target cells) [1]: 9740 RLU
